Laboratory results as given in publication doi:10.1101/2021.03.26.437179 (bioRxiv, 2021).

Tests used:
Experiment in all cases: pull-down
HIS-PUB26 = molecular target: T1, HIS-PUB26 (Arabidopsis thaliana, UniProt Q9FXA4 1-421)
T1 sequence (looked up): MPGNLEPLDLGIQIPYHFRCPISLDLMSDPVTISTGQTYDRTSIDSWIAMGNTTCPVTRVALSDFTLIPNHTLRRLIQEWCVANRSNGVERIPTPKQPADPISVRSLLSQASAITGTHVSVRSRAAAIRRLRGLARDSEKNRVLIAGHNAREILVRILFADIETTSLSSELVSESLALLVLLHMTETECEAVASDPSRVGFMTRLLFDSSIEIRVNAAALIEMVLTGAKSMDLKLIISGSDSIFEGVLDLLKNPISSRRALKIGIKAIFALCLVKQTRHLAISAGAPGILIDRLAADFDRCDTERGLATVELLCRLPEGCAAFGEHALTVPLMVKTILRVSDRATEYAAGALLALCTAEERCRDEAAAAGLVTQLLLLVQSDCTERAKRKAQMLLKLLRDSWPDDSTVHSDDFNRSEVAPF

GST-PUB25 = molecular target: T2, GST-PUB25 (Arabidopsis thaliana, UniProt Q9LT79 1-421)
T2 sequence (looked up): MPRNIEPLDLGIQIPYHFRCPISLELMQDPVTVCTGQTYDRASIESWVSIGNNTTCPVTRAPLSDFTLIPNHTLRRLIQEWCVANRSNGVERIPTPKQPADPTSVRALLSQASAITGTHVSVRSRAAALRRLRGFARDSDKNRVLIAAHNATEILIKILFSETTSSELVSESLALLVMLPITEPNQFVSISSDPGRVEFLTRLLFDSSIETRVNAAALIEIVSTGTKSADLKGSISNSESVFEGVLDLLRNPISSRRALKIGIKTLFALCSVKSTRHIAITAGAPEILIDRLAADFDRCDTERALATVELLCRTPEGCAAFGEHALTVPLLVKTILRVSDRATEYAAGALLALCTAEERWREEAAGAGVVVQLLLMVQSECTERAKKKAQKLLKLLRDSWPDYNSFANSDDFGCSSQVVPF

GST-PUB26 = molecular target: T3, GST-PUB26 (Arabidopsis thaliana, UniProt Q9FXA4 1-421)
T3 sequence (looked up): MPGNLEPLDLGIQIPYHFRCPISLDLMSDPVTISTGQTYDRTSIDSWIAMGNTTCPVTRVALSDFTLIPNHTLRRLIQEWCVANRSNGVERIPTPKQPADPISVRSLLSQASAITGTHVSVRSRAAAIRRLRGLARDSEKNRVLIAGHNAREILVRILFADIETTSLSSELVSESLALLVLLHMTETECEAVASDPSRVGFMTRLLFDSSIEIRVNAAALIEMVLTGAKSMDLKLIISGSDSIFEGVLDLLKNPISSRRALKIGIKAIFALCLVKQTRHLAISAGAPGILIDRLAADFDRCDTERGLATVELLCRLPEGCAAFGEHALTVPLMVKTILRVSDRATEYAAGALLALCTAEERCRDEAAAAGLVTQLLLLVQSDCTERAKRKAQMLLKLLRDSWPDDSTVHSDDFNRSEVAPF

binding result (HIS-PUB26): binds
binding result (GST-PUB25): binds
binding result (GST-PUB26): binds
B1: MBP-MYB6 (natural protein, Arabidopsis thaliana, UniProt Q38851 1-236, looked up)
chain: MGRSPCCEKAHTNKGAWTKEEDQRLVDYIRNHGEGCWRSLPKSAGLLRCGKSCRLRWINYLRPDLKRGNFTDDEDQIIIKLHSLLGNKWSLIAGRLPGRTDNEIKNYWNTHIKRKLLSHGIDPQTHRQINESKTVSSQVVVPIQNDAVEYSFSNLAVKPKTENSSDNGASTSGTTTDEDLRQNGECYYSDNSGHIKLNLDLTLGFGSWSGRIVGVGSSADSKPWCDPVMEARLSLL
